Assay results taken from article PMC2662861, “An unexpected phosphate binding site in Glyceraldehyde 3-Phosphate Dehydrogenase: Crystal structures of apo, holo and ternary complex of Cryptosporidium parvum enzyme” (BMC Structural Biology, 2009).

Substrate: O=C[C@H](O)COP(=O)(O)O
Assay: purified protein
Format: biochemical, Cryptosporidium parvum
Conditions: 150 μM NAD, 50 mM triethanolamine, 50 mM Na2HPO4, 0.2 mM EDTA, pH 8.8, D-G3H 1.47-5.88 mM supplied as DL-G3H

B1: CpGAPDH (Cryptosporidium parvum glyceraldehyde 3-phosphate dehydrogenase) (Cryptosporidium parvum) (protein)
chain: MTATLGINGFGRIGRLVLRACMERNDITVVAINDPFMDVEYMAYLLKYDSVHGNFNGTVEVSGKDLCINGKVVKVFQAKDPAEIPWGASGAQIVCESTGVFTTEEKASLHLKGGAKKVIISAPPKDNVPMYVMGVNNTEYDPSKFNVISNASCTTNCLAPLAKIINDKFGIVEGLMTTVHSLTANQLTVDGPSKGGKDWRAGRCAGNNIIPASTGAAKAVGKVIPALNGKLTGMAIRVPTPDVSVVDLTCKLAKPASIEEIYQAVKEASNGPMKGIMGYTSDDVVSTDFIGCKYSSIFDKNACIALNDSFVKLISWYDNESGYSNRLVDLAVYVASRGL
notes: recombinant, N-terminal hexa-histidine tag kept, expressed in E. coli; homotetramer
Km: 762.7 ± 43.0 µM
